Measurements: patent US20240294647A1

Experiments:
[1] = molecular target: human CD16A-158V ECD fused to monomeric Fc (human) (UniProt P08637); assay: SPR (Biacore T200), receptor captured, 1:1 model
[2] = molecular target: human CD16A-158F ECD fused to monomeric Fc (human) (UniProt P08637); assay: SPR (Biacore T200), receptor captured, 1:1 model
Sequence of human CD16A-158F ECD fused to monomeric Fc (human) (P08637 17-208): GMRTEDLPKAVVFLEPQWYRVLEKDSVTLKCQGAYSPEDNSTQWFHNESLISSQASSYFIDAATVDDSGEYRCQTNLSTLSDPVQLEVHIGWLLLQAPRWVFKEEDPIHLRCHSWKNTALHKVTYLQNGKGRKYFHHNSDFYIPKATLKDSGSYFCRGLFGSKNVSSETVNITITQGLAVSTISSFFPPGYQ

Sequence of human CD16A-158V ECD fused to monomeric Fc (human) (P08637 17-208 F176V): as the sequence (P08637 17-208) above, with F160V counted along it

Kd [1]	koff [1]	kon [1]	Kd [2]	koff [2]	kon [2]	Substance
13.5 nM	0.00639 s⁻¹	474000 M⁻¹ s⁻¹	–	–	–	human IgG1 Fc (enhanced, S239D/I332E) (antibody)
424 nM	0.00995 s⁻¹	23500 M⁻¹ s⁻¹	2720 nM	0.0675 s⁻¹	24800 M⁻¹ s⁻¹	human IgG1 Fc (wildtype) (antibody)
–	–	–	34700 nM	0.71 s⁻¹	20400 M⁻¹ s⁻¹	human IgG1 Fc (silenced, L234F/L235E/D265A) (antibody)
